Here are results for 4 molecules from article PMC8602292, “Acyl carrier protein promotes MukBEF action in Escherichia coli chromosome organization-segregation” (Nature Communications, 2021).

Changes are numbered by the printed parent chain. Names may count otherwise.

Sequences and labels used below:
T1: MukB^KRK (K1114E, R1122E and K1125E) (Escherichia coli, UniProt P22523 1-1486, K1114E | R1122E | K1125E)
T1 construct: E. coli MukB, triple charge-reversed mutant; source: E. coli FL01 (mukB 3xFLAG C3013I), purified (TALON, HiTrap Heparin, Superdex 200); not shown: His tag, C-terminal, kept
T1 sequence (looked up): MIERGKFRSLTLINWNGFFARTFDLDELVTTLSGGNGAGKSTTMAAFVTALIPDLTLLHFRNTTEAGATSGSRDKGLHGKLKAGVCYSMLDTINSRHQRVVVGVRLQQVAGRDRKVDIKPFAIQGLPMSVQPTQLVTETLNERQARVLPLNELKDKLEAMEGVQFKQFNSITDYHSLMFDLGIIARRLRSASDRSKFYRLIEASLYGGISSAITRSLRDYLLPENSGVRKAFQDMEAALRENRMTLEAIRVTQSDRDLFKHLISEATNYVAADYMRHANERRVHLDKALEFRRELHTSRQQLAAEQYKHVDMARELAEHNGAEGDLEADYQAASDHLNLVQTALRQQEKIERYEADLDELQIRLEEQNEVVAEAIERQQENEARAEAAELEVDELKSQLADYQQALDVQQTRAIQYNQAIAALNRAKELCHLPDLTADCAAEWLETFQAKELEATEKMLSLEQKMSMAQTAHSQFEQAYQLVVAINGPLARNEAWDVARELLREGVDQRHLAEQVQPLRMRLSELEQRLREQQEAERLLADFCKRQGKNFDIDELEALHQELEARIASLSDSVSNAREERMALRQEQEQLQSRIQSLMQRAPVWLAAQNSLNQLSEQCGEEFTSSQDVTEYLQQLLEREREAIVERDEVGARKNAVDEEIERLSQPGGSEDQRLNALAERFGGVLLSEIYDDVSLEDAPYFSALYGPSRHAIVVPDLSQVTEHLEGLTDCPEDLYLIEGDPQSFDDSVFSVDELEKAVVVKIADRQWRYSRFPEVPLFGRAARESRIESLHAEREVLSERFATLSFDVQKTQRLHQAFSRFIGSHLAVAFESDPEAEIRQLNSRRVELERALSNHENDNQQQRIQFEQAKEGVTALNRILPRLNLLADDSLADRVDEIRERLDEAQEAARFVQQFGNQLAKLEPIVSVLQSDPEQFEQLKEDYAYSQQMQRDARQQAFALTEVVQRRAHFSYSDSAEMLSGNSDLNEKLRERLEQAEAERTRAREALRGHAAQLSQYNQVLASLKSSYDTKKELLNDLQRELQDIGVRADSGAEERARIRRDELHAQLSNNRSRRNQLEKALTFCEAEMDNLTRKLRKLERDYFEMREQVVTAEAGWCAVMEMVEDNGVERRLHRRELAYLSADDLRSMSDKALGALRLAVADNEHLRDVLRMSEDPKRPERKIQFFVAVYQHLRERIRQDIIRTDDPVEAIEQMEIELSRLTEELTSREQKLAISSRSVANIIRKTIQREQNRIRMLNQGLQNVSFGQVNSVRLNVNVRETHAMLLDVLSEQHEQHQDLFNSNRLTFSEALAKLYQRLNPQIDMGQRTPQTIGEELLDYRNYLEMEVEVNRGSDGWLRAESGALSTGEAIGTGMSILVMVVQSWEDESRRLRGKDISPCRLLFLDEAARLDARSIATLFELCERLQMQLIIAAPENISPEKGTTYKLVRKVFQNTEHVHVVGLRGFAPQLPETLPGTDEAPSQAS

B1: MukB (wild type, MukB-His) (natural protein, Escherichia coli, UniProt P22523 1-1486, looked up)
chain: T1 sequence (looked up) with E1114K, E1122R, E1125K
notes: MukB, the SMC protein of Escherichia coli MukBEF; wild type; The end of the tag is read from the printed name 'MukB-His'; The same construct was used with co-purified AcpP or depleted of AcpP by an extended salt gradient on heparin; also called WT MukB; AcpP-depleted MukB; source: E. coli C3013I (NEB), pET vector, purified (TALON, HiTrap Heparin, Superdex 200); not shown: His tag, C-terminal, kept

In data set [1] the target is MukB^HN (MukB Head-Neck) (Escherichia coli). Put plainly: native MS; MukB^N or MukB^HN with co-purified AcpP; 200 mM ammonium acetate pH 8.0.
In data set [2] the target is MukB^N (MukB Neck) (Escherichia coli). The description is as above.
In data set [3] the target is MukB (wild type, MukB-His) (Escherichia coli) (UniProt P22523).
Data set [4] deals with MukB^KK (K1114E and K1125E) (Escherichia coli) (UniProt P22523).
For data set [5], the target named is T1, MukB^KRK (K1114E, R1122E and K1125E).
The target in data set [6] is B1.
Data set [7] concerns the molecule itself. The data set can be described thus: native MS; mixtures of MukB, MukE, MukF and AcpP at various concentrations of MukB; 200 mM ammonium acetate pH 8.0.

Consider “Acyl Carrier Protein (AcpP), native, co-purified from the E. coli host (from UniProt P0A6A8 1-78) (natural protein)”, for which the stoichiometry N in data set [1] and in data set [2] was 1 each time. The ATPase activity of MukBF co-purified with AcpP (ATP molecules/MukB2/min) in data set [3] came out at 27.2.

Regarding MukB^N (MukB Neck) (domain or fragment), the stoichiometry N (in general, a count of units in the complex or per binding partner) in data set [2] was 2.

“Acyl Carrier Protein (AcpP), recombinant (from UniProt P0A6A8 1-78) (natural protein)” gave an ATPase activity with MukEF against increasing AcpP (up to 50 μM) (% of WT ATPase activity) in data set [4] of 60. The molecule also displayed an ATPase activity with MukEF against increasing AcpP (up to 100 times excess, 50 μM) (ATP molecules/MukB2/min) in data set [5] of 7.6. Moreover, the ATPase activity of AcpP-depleted MukB with MukF, without and with added recombinant AcpP (ATP molecules/MukB2/min) in data set [6] turned out to be 29.

As to B1, the binding result in data set [7] is recorded as “binds”.
